Data: patent US12202887B2, “Eradication of bacterial biofilm using anti-amyloid monoclonal antibodies” (priority 2018, dated 2025)
Where two headings read alike, the source gives them in different places.

Tests used:
S. Typhimurium biofilm [1] = assay: S. Typhimurium biofilms with or without ALZ.3H3, then ampicillin or DNase for 24 hours, Syto9 imaging; assay type: cell-based; conditions: for Overall biofilm appearance: wildtype biofilms treated alone for 24 hours after biofilm establishment
Source text: Biofilms enhance the recalcitrance of bacteria to antibiotics (Keren et al., 2004, FEMS Microbiol Lett, 230(1):13-8, Brown et al., 1988, J Antimicrob Chemother, 22(6):777-80, Stewart, 2002, Int J Med Microbiol, 292(2):107-13). To enhance the clearance of bacterial biofilms, the structure of the biofilm was altered by employing ALZ.3H3 and then the biofilm was subjected to antibiotics to kill the bacteria within the disperse biofilm. […] an additional integral component of S. Typhimurium biofilms, wildtype or ALZ.3H3 incubated biofilms were exposed to X DNase treatment for an additional 24 hours. Biofilms were then stained with Syto9 and visualized using CSML. Excessive washing steps were avoided in aims to examine the architecture of the biofilms.

Aβ42 conformers = target: T1, Aβ42 conformers (Homo sapiens, UniProt P05067); assay: MAb binding to Aβ42 conformers by surface plasma resonance (SPR)
T1 construct: Amyloid beta derived diffusible ligands (ADDLs), also known as globulomers, produced from Aβ42
T1 sequence (P05067 672-713 limits assumed): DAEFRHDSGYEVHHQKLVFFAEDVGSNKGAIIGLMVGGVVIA
Method: MAb binding to Aβ42 conformers was measured by surface plasma resonance (SPR) (Table 1). Calculated affinity constants (KD) were obtained using Qdat software. […] The 3H3 binding data is qualitatively most similar to the 4G1 and 6E10 mAbs.

[2] = tested on: tau paired helical filaments (TAU PHF) isolated from AD brain homogenates; assay: SPR binding to tau paired helical filaments; conditions: antibody concentration 66.7 nM
Sequence of tau paired helical filaments (TAU PHF) isolated from AD brain homogenates (P10636 623-695 limits assumed): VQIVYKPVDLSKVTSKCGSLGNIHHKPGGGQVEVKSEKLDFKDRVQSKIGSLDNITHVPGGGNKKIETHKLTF
Method: FIG. 14 depicts a surface plasma resonance (SPR) analysis for binding to aggregated islet amyloid peptide IAPP and tau paired helical filaments (TAU PHF) isolated from AD brain homogenates. The antibody concentrations used in this study were 110 nM for the IAPP and 66.7 nM for the Tau-PHF.
Human mAbs were assayed by SPR for binding to aggregated islet amyloid peptide IAPP and tau paired helical filaments (TAU PHF) isolated from AD brain homogenates (FIG. 14). The antibody concentrations used in this study were 110 nM for the IAPP and 66.7 nM for the Tau-PHF.

S. Typhimurium biofilm [3] = assay: S. Typhimurium biofilms established in presence of mAb, Syto9 stain, CSLM, ImageJ particle count, supernatant plating; assay type: cell-based; conditions: 0.5 mg/ml
Method: After growth, biofilms were stained with Syto9 and imaged using CSLM. Three dimensional architecture was examined by creating 3D surface plots using ImageJ. […] To quantify the disperse biofilm created by treatment with ALZ.3H3, through the use of ImageJ all particles above the thickness of a wild-type S. Typhimurium ([…]) was used to set the threshold value, and these threshold parameters were applied to subsequent treatments (FIG. 1B). […] The bacteria recovered from the supernatants is representative of the loose disperse biofilm matrix that is easily dissociated from the biomass.

[4] = tested on: pre-established S. Typhimurium biofilms; assay: mAb added to pre-established S. Typhimurium biofilms, CSLM and particle count; assay type: cell-based
Method: To determine if ALZ.3H3 can reduce biofilm formation of pre-established biofilms of S. Typhimurium, 0.5 mg/ml of ALZ.3H3 was added for an additional 24 hours to a 24 hour pre-established biofilm of S. Typhimurium, or 0.5 mg/ml of ALZ.3H3 was added for 24 hours to a 48 hour pre-established biofilms. These biofilms were then compared, respectively, to a 48 and 72 hour S. Typhimurium biofilm that was not exposed to ALZ.3H3 (FIG. 2A). Biofilms were stained with Syto9 and imaged using CSML. Biofilms were not wash extensively in order determine the impact of ALZ.3H3 on biofilm architecture. […] Using the thresholding technique described earlier, the number of particles above the thickness of the wild-type S. Typhimurium were counted.

[5] = tested on: Histadine tagged CsgA (His-CsgA), curli; assay: Thioflavin T (ThT) fibrillization assay of His-CsgA; assay type: biochemical
Method: The formation of monomers into mature curli fibrils can be monitored by incubation with Thioflavin T (ThT). Fluorescence of ThT increases as it binds to amyloid fibril, allowing the amyloid formation process to be measured spectroscopically. The formation of amyloid fibers can be defined by a three stage sigmoidal curve (Dueholm et al., 2011, Biochemistry, 50(39):8281-90; Wang et al., 2007, J Biol Chem, 282(6):3713-9). In the first stage, monomeric subunits are slow to self-associate and ThT fluorescence is minimal (Naiki et al., 1991, Lab Invest, 65(1):104-10). The reaction exponential increases as monomeric seeds oligomerize and continue to elongate (Naiki et al., 1991, Lab Invest, 65(1):104-10). This process is marked by a rapid increase in ThT fluorescence (Naiki et al., 1991, Lab Invest, 65(1):104-10). The oligomers elongate into mature fibrils and Tht fluorescence peaks (Dueholm et al., 2011, Biochemistry, 50(39):8281-90; Wang et al., 2007, J Biol Chem, 282(6):3713-9). […] Histadine tagged CsgA (His-CsgA), which will naturally self-associate and fibrillize, was incubated with 0.5 mg/ml ALZ.3H3 and the fibrillization reaction was monitored using ThT. As controls synthetic peptides CsgAR4-5 and CsgAR4-5N122A were incubated with Tht and the fribrillization reaction was monitored in parallel. […]

E. coli UTI89 biofilm = assay: Colony forming units per biofilm on glass coverslips, E. coli UTI89
Method: (§1) Biofilms of S. Typhimurium (STM) or E. coli UTI89 grown in the absence or presence of 3H3 (250 ug/ml, 125 ug/ml, 50 ug/ml, 25 ug/ml, 10 ug/ml, 1 ug/ml) as well as grown with 0.5 mg/ml control A6 antibody on top of sterile glass coverslips for 72 hours at 26 C in a sterile 24 well dish. S. Typhimurium curli mutant (csgBA) and UTI89 curli mutant (csgBA) were also grown as a negative controls. In select conditions, biofilms were incubated for an additional 24 hours at 26 C with 30 ug/ml Ampicillin (Amp). The sterile glass coverslip, which was used as a surface for the biofilm to grow upon, was placed in a sterile 15 ml conical tube that contained 3 ml of sterile PBS. The biofilm was sonicated for 10 seconds at a setting of 4 using a ThermoFisher Sonic Dismembrator. Bacteria were enumerated by serial diluting 1:10 in sterile PBS and spot plating on agar plates.
(§2) Biofilms of S. Typhimurium (STM) or E. coli UTI89 grown in the absence or presence of 3H3 (250 ug/ml, 125 ug/ml, 50 ug/ml, 25 ug/ml, 10 ug/ml, 1 ug/ml) as well as grown with 0.5 mg/ml control A6 antibody on top of sterile glass coverslips for 72 hours at 26 C in a sterile 24 well dish. S. Typhimurium curli mutant (csgBA) and UTI89 curli mutant (csgBA) were also grown as a negative controls. In select conditions, biofilms were incubated for an additional 24 hours at 26 C with 30 ug/ml Ampicillin (Amp). […]

[6] = tested on: S. Typhimurium (STM) biofilm; assay: Colony forming units per biofilm on glass coverslips, S. Typhimurium
Method: as §1, §2

[7] = tested on: S. Typhimurium biofilm on medical grade catheters; assay: In vitro catheter assay: Salmonella biofilms grown on sterile i.v. catheters, GFP and Congo red; conditions: 0.5 mg/ml for 72 hours
Method: (§3) Salmonella biofilms were grown alone or in the presence of ALZ3H3 antibody upon sterile i.v. catheters. Bacteria were labeled green using GFP. Congo red was used to stain for curli amyloid fibrils. […] To investigate the combination effect of ALZ3H3 and ampicillin on biofilm growth, mice were given 1 mg/ml Ampicillin in the drinking water 24 hours prior to catheter insertion. Sterile i.v. catheters were incubated for 24 hours with Salmonella typhimurium prior to insertion into the back flanks of Balb/C mice. 24 and 28 hours after catheter insertion 100 ug of ALZ3H3 was percutaneously inserted into the lumen of the catheter. 72 hours after catheter insertion, mice were euthanized and the catheters were removed. Bacteria were labeled green using GFP. Congo red was used to stain for curli amyloid fibrils. Catheters autofluoresced green.

[8] = tested on: Salmonella typhimurium catheter biofilm; assay: In vivo catheter assay: Salmonella typhimurium colonized catheters inserted into back flanks of mice
Method: as §3

DNase
Overall biofilm appearance (S. Typhimurium biofilm [1]): no alteration in overall biofilm appearance

CC1(C)S[C@@H]2[C@H](NC(=O)[C@H](N)c3ccccc3)C(=O)N2[C@H]1C(=O)O [ampicillin]
Overall biofilm appearance (S. Typhimurium biofilm [1]): no alteration in overall biofilm appearance

B1: 4A6: human anti-amyloid mAb cloned from B cells of an Alzheimer's patient; heavy chain SEQ ID NO:57, light chain SEQ ID NO:59 (antibody, V domains shown)
VH: QVQLVQSGAEVKKPGASMRVSCKASGYTYTAYYIHWMRQAPGQGLEWMGWINPHIGSTNYAEKFRGRVTLTRDTSIKTAYMDLDRLTSDDTAIYYCARVRAPRSISGTLNSYGMDVWGQGTTVAVSS
VL: DIVMTQSPSSLSASVGDRVVITCRASLRIGTFLNWYQQTQGRAPKLLVSSASTLQSGVPSRFSGSGSGTDFTLTINSLQPEDFATYYCQQSYSTTWTFGQGTKVELK
modifications: Chemically Synthesized, ALZ.4A6 Heavy Chain; Chemically Synthesized, ALZ.4A6 Light Chain
Binding preference among Aβ42 conformers (Aβ42 conformers): preferentially bind Aβ fibrils
Kd (Aβ42 conformers; C-terminal biotinylated ADDLs/globulomers, read-out: Calculated affinity constant (KD), CTB oligo): > 2000 nM
Kd (Aβ42 conformers; N-terminal biotinylated monomers, read-out: Calculated affinity constant (KD), NTB mono): > 2000 nM

B2: 4G1: human anti-amyloid mAb cloned from B cells of an Alzheimer's patient; heavy chain SEQ ID NO:61, light chain SEQ ID NO:63 (antibody, V domains shown)
VH: EEHLVESGGALVQPGGSLRLSCEASGFTFRSYWMTWVRQAPGKGLEWLANIKQDGSDYYYVDSVKGRFTISRDNAKNTLYLQMNNLRADDTAVYFCARDARYRDTTWPQYYFYYFMDVWGKGTTVTVSS
VL: DIQLTQSPSSLSASIGDRVTVTCRASQSISNYLNWYQQKPGKAPKLLIYAASNLHTGVPSRFSGSGSGTHFTLTISSLQPEDFATYYCQLSYNNPRTFGPGTTVDIR
modifications: Chemically Synthesized, ALZ.4G1 Heavy Chain; Chemically Synthesized, ALZ.4G1 Light Chain
Binding to Tau PHF [2]: notable for binding to Tau PHF

B3: ALZ.3H3: human monoclonal antibody with pan-amyloid binding activity; heavy chain SEQ ID NO:2, light chain SEQ ID NO:35 (antibody)
VH: MEFGLSWVFLVALLRGVQCQVQLVESGGGVVQPGRSLRLSCAASGFSFSTYGMHWVRQAPGKGLEWVAVISYDGSRKYYADTGKGRFTISRDNSKNTLYLEMNGLRAEDTAVYHCAKDLRRELGFGNRDYHYYGMDAWGQGTTVTVSSASTK
light: LTQPRSVSGSPGQSVTMSCTGTNSDIGGYNYVSWYQQHPGKAPKLMIYDVYKRPSGVPDRFSGSKSGNTASLTISGLQAEDEADYYCCSYAGTNNLIFGGGTKLTVLGQPKAAPSVTLFPPSSEELQANKATLVCLISDFYPGAVTVAWKADSSPVKAGVETTTPSKQSNNKYAASSYLSLTPEQWKSHRSYSCQV
modifications: Chemically Synthesized, ALZ.3H3 Heavy Chain; Chemically Synthesized, ALZ.3H3 Light Chain
Number of particles above the thickness of wild-type biofilm (20 μM) (S. Typhimurium biofilm [3]; 72 hours at 28° C.): significant increase in number of particles
Biofilm architecture (S. Typhimurium biofilm [3]; 72 hours at 28° C., 3D surface plots): altered the architecture of biofilm forming a disperse biofilm topography
Bacteria recovered from biofilm supernatant (S. Typhimurium biofilm [3]; plating supernatants): significantly more bacteria was recovered
Number of particles above the thickness of wild-type biofilm ([4]; 24 hour pre-established biofilm + 0.5 mg/ml for 24 hours): increased the number of particles
Biofilm matrix architecture ([4]; 24 hour pre-established biofilm + 0.5 mg/ml for additional 24 hours, vs 48 hour biofilm): began to exhibit a more disperse matrix
Number of particles above the thickness of wild-type biofilm ([4]; 48 hour pre-established biofilm + 0.5 mg/ml for 24 hours): the number of particles increased as well
Biofilm matrix architecture ([4]; 48 hour pre-established biofilm + 0.5 mg/ml for additional 24 hours, vs 72 hour biofilm): the biofilm matrix was more disperse
Lag time (t0) for His-CsgA to self-associate and oligomerize ([5]; 0.5 mg/ml antibody, compared to synthetic peptide CsgAR4-5): significant increase in the lag times
ThT relative fluorescence units (fibril formation) ([5]; His-CsgA with 0.5 mg/ml antibody): significant reduction in the relative fluorescence units
Biofilm mass (S. Typhimurium biofilm [1]; 0.5 mg/ml ALZ.3H3 during growth, then antibiotic treatment (ampicillin) for additional 24 hours): significant reduction in the biofilm mass to the levels below detection
Binding to Tau PHF [2]: notable for binding to Tau PHF
CFU/biofilm (E. coli UTI89 biofilm; UTI89 grown with 3H3 (1-250 ug/ml), 72 hours at 26 C): reduction of CFU/biofilm
CFU/biofilm (E. coli UTI89 biofilm; UTI89 grown with 3H3, then 30 ug/ml Ampicillin for additional 24 hours): additional reduction in CFU/biofilm
CFU/biofilm ([6]; STM grown with 3H3 (1-250 ug/ml), 72 hours at 26 C): reduction of CFU/biofilm
CFU/biofilm ([6]; STM grown with 3H3, then 30 ug/ml Ampicillin for additional 24 hours): additional reduction in CFU/biofilm
Catheter biofilm morphology [7]: the biofilm was dispersed
Congo red staining (curli fibers) [7]: no significant staining with Congo red
Catheter biofilm morphology and curli ([8]; 100 ug percutaneously into catheter lumen, catheters removed at 72 hours): disperse morphology with little curli
Amyloid incorporation in catheter biofilm ([8]; combination: 100 ug ALZ3H3 into lumen + 1 mg/ml ampicillin in drinking water): little to no amyloid incorporation
